In patent US12409260:

Molecular target: SARS-CoV-2 (2019-nCoV) Spike S1-His Recombinant Protein (Sino Biological Catalog Number 40591-V08H) (SARS-CoV-2) (UniProt P0DTC2)

Chain of Galanthus nivalis agglutinin (GNA) (P30617 24-128 limits assumed): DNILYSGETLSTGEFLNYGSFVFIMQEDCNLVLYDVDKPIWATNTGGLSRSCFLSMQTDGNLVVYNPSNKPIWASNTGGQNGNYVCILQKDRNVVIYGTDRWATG

Galanthus nivalis agglutinin (GNA) (from UniProt P30617 24-128)
percent of S1 depleted from solution at 15 minutes: > 90%
